Assay results taken from US8840891 (RSR, dated 2014).

Columns and labels:
[1] = biological target: wild type human TSHR (human) (UniProt P16473); test: cell-based or functional assay
[2] = biological target: TSHR with Ile60 mutated to Alanine (human) (UniProt P16473); test: cell-based or functional assay
[3] = biological target: TSHR coated onto tubes (human) (UniProt P16473); test: TSHR coated tubes, competitor 125I-TSH

Chain of 5C9 IgG (antibody) (VH): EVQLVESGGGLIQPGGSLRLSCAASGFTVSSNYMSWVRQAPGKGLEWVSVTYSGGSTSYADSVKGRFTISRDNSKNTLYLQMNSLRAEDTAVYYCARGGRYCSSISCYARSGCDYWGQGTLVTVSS
Chain of 5C9 IgG (antibody) (VL): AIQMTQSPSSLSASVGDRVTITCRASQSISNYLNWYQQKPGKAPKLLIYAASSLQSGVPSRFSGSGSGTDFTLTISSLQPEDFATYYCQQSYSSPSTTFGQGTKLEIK

## 5C9 IgG (antibody)
[1]
  cyclic AMP; 5C9 0.01 µg/mL + TSH (fmol/cell well): 8020
  cyclic AMP; 5C9 0.1 µg/mL + TSH (fmol/cell well): 7100
  cyclic AMP; 5C9 1.0 µg/mL + TSH (fmol/cell well): 1570
  cyclic AMP; 5C9 10 µg/mL + TSH (fmol/cell well): 1770
  cyclic AMP; 5C9 100 µg/mL + TSH (fmol/cell well): 1730
  cyclic AMP; 5C9 100 µg/mL only (fmol/cell well): 61
[2]
  Mutated/wild type (%); 5C9 0.01 µg/mL + TSH: 236%
  Mutated/wild type (%); 5C9 0.1 µg/mL + TSH: 164%
  Mutated/wild type (%); 5C9 1.0 µg/mL + TSH: 210%
  Mutated/wild type (%); 5C9 10 µg/mL + TSH: 68%
  Mutated/wild type (%); 5C9 100 µg/mL + TSH: 181%
  Mutated/wild type (%); 5C9 100 µg/mL only: 426%
  cyclic AMP; 5C9 0.01 µg/mL + TSH (fmol/cell well): 19000
  cyclic AMP; 5C9 0.1 µg/mL + TSH (fmol/cell well): 11600
  cyclic AMP; 5C9 1.0 µg/mL + TSH (fmol/cell well): 3290
  cyclic AMP; 5C9 10 µg/mL + TSH (fmol/cell well): 1210
  cyclic AMP; 5C9 100 µg/mL + TSH (fmol/cell well): 3130
  cyclic AMP; 5C9 100 µg/mL only (fmol/cell well): 260
[3]
  % inhib of 125I-TSH binding at 0.01 µg/mL: 2%
  % inhib of 125I-TSH binding at 0.1 µg/mL: 8%
  % inhib of 125I-TSH binding at 1 µg/mL: 21%
  % inhib of 125I-TSH binding at 10 µg/mL: 30%
  % inhib of 125I-TSH binding at 100 µg/mL: 50%
